Test results as given in patent JP2017014112A (dated 2017).

Experiments:
[1] = target: T1, サバイビン (antigen of the competitive ELISA) (UniProt O15392 1-142); test: competitive ELISA: fixed VHH equilibrated with varied survivin, free VHH caught on antigen-coated plate, anti-His detection
T1 construct: also called サバイビン1010; 抗原

[2] = target: T2, サバイビンとカルモジュリンとの融合タンパク質 (catalogue no. SUR0801, ATGen) (Homo sapiens (Human), UniProt O15392 1-142, fluorescein-labelled when used as prey in the pull-down); test: SPR, Biacore X100, fusion captured through biotin-CBP on SA chip, VHH 6.25-100 nM as analyte, single cycle
T2 construct: Bought fusion protein; Fluorescein-labelled in the pull-down; unlabelled and captured through biotin-CBP on the SA chip in the Biacore run; also called 融合タンパク質200; survivin-calmodulin fusion protein

[3] = target: カルモジュリン (UniProt P0DP23 2-149); test: pull-down with bead-bound VHH, fluorescein-labelled prey, SDS-PAGE

T1 sequence (O15392 whole entry): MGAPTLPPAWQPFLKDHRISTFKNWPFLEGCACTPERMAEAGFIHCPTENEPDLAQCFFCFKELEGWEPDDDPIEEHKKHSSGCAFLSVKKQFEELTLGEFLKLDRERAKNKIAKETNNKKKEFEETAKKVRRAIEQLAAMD
T2 sequence (O15392 whole entry, the tested form may be a part): as the sequence (O15392 whole entry) above

| Kd [2] [nM] | Binder | Kd [1] [nM] | binding result [3] |
| --- | --- | --- | --- |
| 25.1 | 精製したVHH抗体(R7-A), C-terminal His×6, secreted from Brevibacillus (VHH, Expressed with the Brevibacillus secretion system and purified on Ni Sepharose) VHH: EVQLVESGGGSVQAGGSLRLSCAASGVSNTDMIMIWFRQAPGKEREGVLAAIYKNSTYYADSVKGRFTISQDNAKNTVYLQMNSLKPEDTAIYYCAAIRAVIGRHIRPHIYWGQGTQVTVGG | 516 |  |
|  | R7-AのDNA断片にコードされるVHH抗体 (cell-free translated, on the nucleic acid linker) (VHH, C-terminus covalently bound to the puromycin of the nucleic acid linker (linker carries biotin and fluorescein), Made in rabbit reticulocyte lysate and held on streptavidin magnetic beads through the linker for the pull-down; also called VHH抗体タンパク質120) VHH: EVQLVESGGGSVQAGGSLRLSCAASGVSNTDMIMIWFRQAPGKEREGVLAAIYKNSTYYADSVKGRFTISQDNAKNTVYLQMNSLKPEDTAIYYCAAIRAVIGRHIRPHIYWGQGTQVTVGG |  | no binding (tested: 200 nM) |
|  | R7-BのDNA断片にコードされるVHH抗体 (VHH, C-terminus covalently bound to the puromycin of the nucleic acid linker (linker carries biotin and fluorescein), Cell-free translated, on the nucleic acid linker, as bait in the pull-down) VHH: EVQLVESGGGSVQAGGSLRLSCAASGIPIQDSVVLWFRQAPGKEREGVLAAKYRSPTYYADSVKGRFTISQDNAKNTVYLQMNSLKPEDTAIYYCAAIRAVIGRHIRPHIYWGQGTQVTVGG |  | no binding (tested: 200 nM alone; 500 nM in the protein mix) |
|  | R7-DのDNA断片にコードされるVHH抗体 (VHH, C-terminus covalently bound to the puromycin of the nucleic acid linker (linker carries biotin and fluorescein), Cell-free translated, on the nucleic acid linker, as bait in the pull-down) VHH: EVQLVESGGGSVQAGGSLRLSCAASGVSNTDMIMIWFRQAPGKEREGVLAAIYKNSTYYADSVKGRFTISQDNAKNTVYLQMNSLKPEDTAIYYCAAIAFNGHNHPILTIYWGQGTQVTVGG |  | no binding (tested: 500 nM in the protein mix) |
|  | R7-EのDNA断片にコードされるVHH抗体 (VHH, C-terminus covalently bound to the puromycin of the nucleic acid linker (linker carries biotin and fluorescein), Cell-free translated, on the nucleic acid linker, as bait in the pull-down) VHH: EVQLVESGGGSVQAGGSLRLSCAASGVSNTDMIMIWFRQAPGKEREGVLAAIYKNSTYYADSVKGRFTISQDNAKNTVYLQMNSLKPEDTAVYYCAAISAVIGRHIRPHIYWGQGTQVTVGG |  | no binding (tested: 500 nM in the protein mix) |
